Assay results as given in the supplement of paper PMC10065799, “High-throughput profiling of sequence recognition by tyrosine kinases and SH2 domains using bacterial peptide display” (eLife, 2023).

Columns and labels:
AncSZ = assay: phosphorylation enrichment, bacterial display (enrichment ratio); higher = better substrate or ligand; peptides without Tyr show the background
EPHB1 = EPHB1 (UniProt P54762); assay: as above
EPHB2 = EPHB2 (UniProt P29323); assay: as above
FGFR1 = FGFR1 (UniProt P11362); assay: as above
FGFR3 = FGFR3 (UniProt P22607); assay: as above
Fer (mouse) = assay: as above
Fes = Fes (UniProt P07332); assay: as above
Fyn = Fyn (UniProt P06241); assay: as above
Hck = Hck (UniProt P08631); assay: as above
Jak2 = Jak2 (UniProt O60674); assay: as above
MERTK = MERTK (UniProt Q12866); assay: as above
c-Abl (mouse) = assay: as above
c-Src = assay: as above
Grb2 SH2 = Grb2 SH2 (UniProt P62993); assay: SH2 binding enrichment of the phosphorylated peptide, bacterial display (enrichment ratio); higher = better substrate or ligand; peptides without Tyr show the background
SHP2-C SH2 = assay: as above
c-Src SH2 = assay: as above
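Throughout, for SH2 binding enrichment of the phosphorylated peptide, bacterial display: peptide library displayed on the E. coli surface as eCPX fusions, selected cells deep-sequenced, score is each peptide's frequency after selection divided by its frequency in the input.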
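Throughout, for phosphorylation enrichment, bacterial display: 11-residue human phosphosite peptides and single-mutation variants displayed on the E. coli surface, counted by deep sequencing, each peptide's frequency after selection divided by its frequency in the unselected input library; frequency after pTyr selection over input frequency; kinase dosed for 20-30% of maximal phosphorylation in three min.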

Chain of FGFR1 (P11362 whole entry, looked up): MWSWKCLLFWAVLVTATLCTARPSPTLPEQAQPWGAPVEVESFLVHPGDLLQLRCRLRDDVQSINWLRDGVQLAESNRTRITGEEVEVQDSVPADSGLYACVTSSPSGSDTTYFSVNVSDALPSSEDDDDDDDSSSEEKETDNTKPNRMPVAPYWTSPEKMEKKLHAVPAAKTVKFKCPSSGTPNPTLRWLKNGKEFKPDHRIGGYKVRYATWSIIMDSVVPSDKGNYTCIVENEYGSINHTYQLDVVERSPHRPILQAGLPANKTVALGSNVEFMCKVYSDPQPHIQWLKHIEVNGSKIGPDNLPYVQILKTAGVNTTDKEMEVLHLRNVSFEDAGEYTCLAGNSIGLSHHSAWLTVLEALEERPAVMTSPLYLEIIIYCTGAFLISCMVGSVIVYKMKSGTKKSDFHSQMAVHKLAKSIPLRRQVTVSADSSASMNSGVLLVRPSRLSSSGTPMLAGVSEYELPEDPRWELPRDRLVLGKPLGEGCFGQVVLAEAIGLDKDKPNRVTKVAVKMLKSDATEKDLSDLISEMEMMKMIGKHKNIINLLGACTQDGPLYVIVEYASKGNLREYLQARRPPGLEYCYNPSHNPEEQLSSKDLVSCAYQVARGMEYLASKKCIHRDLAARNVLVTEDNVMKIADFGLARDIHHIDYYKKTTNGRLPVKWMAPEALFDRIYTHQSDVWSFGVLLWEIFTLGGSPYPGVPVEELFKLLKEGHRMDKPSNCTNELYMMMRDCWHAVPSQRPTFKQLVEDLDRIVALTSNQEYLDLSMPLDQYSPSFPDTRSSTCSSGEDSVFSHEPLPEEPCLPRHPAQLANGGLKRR
Chain of Jak2 (O60674 whole entry, looked up): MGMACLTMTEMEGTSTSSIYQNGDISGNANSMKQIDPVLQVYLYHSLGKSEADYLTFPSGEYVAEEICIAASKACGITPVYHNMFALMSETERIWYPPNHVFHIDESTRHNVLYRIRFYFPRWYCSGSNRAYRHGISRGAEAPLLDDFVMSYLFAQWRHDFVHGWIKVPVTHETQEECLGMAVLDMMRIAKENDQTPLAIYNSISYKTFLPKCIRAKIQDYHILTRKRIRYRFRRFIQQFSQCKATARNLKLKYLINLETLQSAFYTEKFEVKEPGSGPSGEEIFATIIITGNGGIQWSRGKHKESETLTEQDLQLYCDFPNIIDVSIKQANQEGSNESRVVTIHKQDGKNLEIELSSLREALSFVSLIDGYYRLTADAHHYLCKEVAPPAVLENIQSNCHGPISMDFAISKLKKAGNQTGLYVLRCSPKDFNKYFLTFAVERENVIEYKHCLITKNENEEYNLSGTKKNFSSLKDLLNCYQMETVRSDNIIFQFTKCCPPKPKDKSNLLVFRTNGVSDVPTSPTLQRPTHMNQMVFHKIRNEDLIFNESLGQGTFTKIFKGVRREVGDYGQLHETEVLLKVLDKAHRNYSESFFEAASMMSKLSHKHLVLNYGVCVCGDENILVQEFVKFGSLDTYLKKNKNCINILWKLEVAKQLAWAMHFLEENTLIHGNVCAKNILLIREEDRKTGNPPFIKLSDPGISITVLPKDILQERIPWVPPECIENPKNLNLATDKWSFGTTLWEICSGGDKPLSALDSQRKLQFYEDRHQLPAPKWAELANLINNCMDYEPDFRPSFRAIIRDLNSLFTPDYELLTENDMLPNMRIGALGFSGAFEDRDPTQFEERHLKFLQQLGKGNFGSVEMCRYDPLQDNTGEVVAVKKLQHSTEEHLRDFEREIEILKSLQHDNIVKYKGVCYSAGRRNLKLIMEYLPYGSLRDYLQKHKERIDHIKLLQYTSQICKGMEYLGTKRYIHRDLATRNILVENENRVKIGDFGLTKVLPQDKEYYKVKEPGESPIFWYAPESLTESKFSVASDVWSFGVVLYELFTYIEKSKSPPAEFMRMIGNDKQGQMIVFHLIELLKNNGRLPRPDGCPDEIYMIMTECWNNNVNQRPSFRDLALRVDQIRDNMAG
Chain of Fes (P07332 whole entry, looked up): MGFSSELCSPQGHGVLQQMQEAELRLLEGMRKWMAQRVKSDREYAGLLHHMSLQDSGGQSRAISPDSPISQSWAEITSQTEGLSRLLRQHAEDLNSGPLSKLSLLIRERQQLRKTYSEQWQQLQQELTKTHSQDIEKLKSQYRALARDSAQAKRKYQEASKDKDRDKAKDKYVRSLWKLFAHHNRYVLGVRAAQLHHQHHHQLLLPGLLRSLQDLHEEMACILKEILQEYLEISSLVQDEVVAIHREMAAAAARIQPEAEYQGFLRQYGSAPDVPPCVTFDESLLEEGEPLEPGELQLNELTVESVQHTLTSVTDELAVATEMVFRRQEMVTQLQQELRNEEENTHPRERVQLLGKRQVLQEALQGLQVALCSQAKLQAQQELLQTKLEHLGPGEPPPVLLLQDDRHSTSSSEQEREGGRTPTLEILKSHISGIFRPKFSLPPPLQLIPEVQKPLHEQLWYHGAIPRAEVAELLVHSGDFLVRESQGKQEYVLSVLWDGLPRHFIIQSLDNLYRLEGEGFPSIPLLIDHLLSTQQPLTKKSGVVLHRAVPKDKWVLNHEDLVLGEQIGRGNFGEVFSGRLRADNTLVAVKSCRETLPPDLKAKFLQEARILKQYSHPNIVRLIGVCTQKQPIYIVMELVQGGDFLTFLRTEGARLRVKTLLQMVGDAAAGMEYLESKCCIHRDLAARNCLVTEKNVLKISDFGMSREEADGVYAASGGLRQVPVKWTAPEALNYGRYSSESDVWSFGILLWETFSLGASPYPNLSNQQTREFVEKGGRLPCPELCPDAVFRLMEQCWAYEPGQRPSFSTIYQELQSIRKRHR
Chain of Grb2 SH2 (P62993 whole entry, looked up): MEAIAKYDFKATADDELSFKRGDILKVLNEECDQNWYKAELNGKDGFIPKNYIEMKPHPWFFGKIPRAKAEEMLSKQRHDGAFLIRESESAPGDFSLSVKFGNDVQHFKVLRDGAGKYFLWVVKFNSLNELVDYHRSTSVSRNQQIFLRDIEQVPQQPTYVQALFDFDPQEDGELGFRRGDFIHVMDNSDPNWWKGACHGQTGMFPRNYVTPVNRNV
Chain of Hck (P08631 whole entry, looked up): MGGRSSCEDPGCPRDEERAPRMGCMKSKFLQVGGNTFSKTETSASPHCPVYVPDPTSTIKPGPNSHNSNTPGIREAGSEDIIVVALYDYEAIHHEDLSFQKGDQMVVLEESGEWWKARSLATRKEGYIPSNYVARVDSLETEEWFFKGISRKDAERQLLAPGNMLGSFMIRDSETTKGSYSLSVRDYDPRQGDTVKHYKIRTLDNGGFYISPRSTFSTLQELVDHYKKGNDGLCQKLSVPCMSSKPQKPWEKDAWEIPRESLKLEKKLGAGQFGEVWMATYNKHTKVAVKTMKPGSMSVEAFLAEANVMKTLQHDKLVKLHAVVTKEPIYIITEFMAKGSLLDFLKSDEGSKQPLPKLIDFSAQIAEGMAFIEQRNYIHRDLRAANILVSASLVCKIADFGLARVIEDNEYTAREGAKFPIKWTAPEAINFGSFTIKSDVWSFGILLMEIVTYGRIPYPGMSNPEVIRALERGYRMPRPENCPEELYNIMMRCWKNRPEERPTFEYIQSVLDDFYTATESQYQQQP
Chain of EPHB2 (P29323 whole entry, looked up): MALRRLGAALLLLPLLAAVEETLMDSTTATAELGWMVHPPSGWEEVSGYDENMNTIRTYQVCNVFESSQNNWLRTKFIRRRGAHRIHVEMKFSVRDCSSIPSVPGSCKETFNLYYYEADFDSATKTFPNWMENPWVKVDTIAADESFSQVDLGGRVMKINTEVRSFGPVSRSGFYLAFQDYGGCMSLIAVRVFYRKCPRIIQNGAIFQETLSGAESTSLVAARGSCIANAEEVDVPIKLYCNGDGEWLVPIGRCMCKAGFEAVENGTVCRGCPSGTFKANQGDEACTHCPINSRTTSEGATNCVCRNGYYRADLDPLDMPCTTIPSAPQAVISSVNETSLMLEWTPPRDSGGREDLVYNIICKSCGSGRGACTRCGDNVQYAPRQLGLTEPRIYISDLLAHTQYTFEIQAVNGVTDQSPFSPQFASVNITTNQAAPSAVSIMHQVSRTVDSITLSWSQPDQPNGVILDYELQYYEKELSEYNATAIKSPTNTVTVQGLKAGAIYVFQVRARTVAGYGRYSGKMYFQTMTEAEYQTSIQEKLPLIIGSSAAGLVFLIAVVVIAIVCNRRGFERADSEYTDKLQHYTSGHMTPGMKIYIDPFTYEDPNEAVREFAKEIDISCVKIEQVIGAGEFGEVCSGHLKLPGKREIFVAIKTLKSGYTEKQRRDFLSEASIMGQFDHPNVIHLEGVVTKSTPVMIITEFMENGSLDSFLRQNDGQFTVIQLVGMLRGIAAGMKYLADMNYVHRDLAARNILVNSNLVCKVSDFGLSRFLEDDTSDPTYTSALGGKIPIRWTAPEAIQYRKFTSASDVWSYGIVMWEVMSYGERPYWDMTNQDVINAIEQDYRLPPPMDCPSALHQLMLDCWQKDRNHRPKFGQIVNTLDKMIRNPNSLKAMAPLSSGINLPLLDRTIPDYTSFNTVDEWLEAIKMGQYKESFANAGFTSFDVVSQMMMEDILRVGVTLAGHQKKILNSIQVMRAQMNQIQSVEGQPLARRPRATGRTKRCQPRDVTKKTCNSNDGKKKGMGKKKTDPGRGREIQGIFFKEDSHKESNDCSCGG

Sequence | phosphorylation enrichment (AncSZ) | phosphorylation enrichment (EPHB1) | phosphorylation enrichment (EPHB2) | phosphorylation enrichment (FGFR1) | phosphorylation enrichment (FGFR3) | phosphorylation enrichment (Fer (mouse)) | phosphorylation enrichment (Fes) | phosphorylation enrichment (Fyn) | phosphorylation enrichment (Hck) | phosphorylation enrichment (Jak2) | phosphorylation enrichment (MERTK) | phosphorylation enrichment (c-Abl (mouse)) | phosphorylation enrichment (c-Src) | SH2 binding enrichment (Grb2 SH2) | SH2 binding enrichment (SHP2-C SH2) | SH2 binding enrichment (c-Src SH2)
RILDVYIFLGP [GAA_Y340_G335R] | 1 | 0.842 | 0.676 | 0.836 | 0.672 | 0.584 | 1.05 | 0.46 | 0.547 | 0.858 | 0.492 | 0.543 | 0.393 | 0.746 | 0.595 | 0.534
RKKEEYKMALF [F8_Y1990_YF] | 0.759 | 0.734 | 0.738 | 0.4 | 0.607 | 0.494 | 0.708 | 0.31 | 0.465 | 0.691 | 0.391 | 0.72 | 0.555 | 1.09 | 1.21 | 0.846
RKLVDYDSARH [BIN1_Y150] | 0.491 | 0.498 | 0.481 | 0.571 | 0.668 | 0.565 | 0.968 | 0.449 | 0.418 | 0.792 | 0.57 | 0.916 | 0.649 | 1.03 | 0.42 | 0.387
RKVLVYDKLNV [ROR2_Y624_N620K] | 0.875 | 1.37 | 0.794 | 0.49 | 0.44 | 1.25 | 0.852 | 1.71 | 10.3 | 0.548 | 2 | 0.854 | 1.82 | 0.906 | 1.09 | 1.44
RLAQRYLIWEC [SCN5A_Y694] | 1.09 | 0.943 | 0.914 | 0.647 | 0.841 | 0.546 | 1.66 | 0.595 | 0.679 | 1.34 | 0.609 | 0.86 | 0.492 | 0.982 | 0.655 | 0.691
RLFARYFQGDL [PDK3_Y337_YF] | 0.826 | 0.416 | 0.547 | 0.572 | 0.627 | 0.474 | 0.882 | 0.499 | 0.723 | 0.545 | 0.525 | 0.524 | 0.481 | 0.713 | 0.454 | 0.292
RLGNQYVNVMN [SLC3A1_Y461] | 0.619 | 2.21 | 0.59 | 0.541 | 0.991 | 0.513 | 0.727 | 0.471 | 0.446 | 0.64 | 0.352 | 0.524 | 0.508 | 15.4 | 2.03 | 2.79
